What all share (assay type): in vivo, mouse
Series [1] in a line: Fluorescence imaging (IVIS) of subcutaneous dose absorption. As to the method:
Preparation of Animal Experiment FUD and 10-40 kDa PEG-FUD Drug Dose: A 12.5 mg FUD equivalents per kg of mouse weight drug dose spiked with 1.5% Cy5 labeled drug was prepared by mixing an appropriate amount of unlabeled and labeled drug in a conical vial. The drug was then dialyzed ON into phosphate buffered saline (pH 7.4) using a 3000 MWCO dialysis membrane. The total volume of the dose was reduced to the appropriate value using a 3000 MWCO Amicon® Ultra-15 centrifugal unit. The final concentration of the drug was determined using a UV-vis spectrophotometer and the 646 nm extinction coefficient of Cy5, ε=271000 L·mol^−1·cm^−1.
10 week old mice weighing 20-23 g were placed under 2% isoflurane anesthesia and positioned on their abdomen inside of an IVIS Spectrum In Vivo Imaging System. A 100 uL dose containing 0.27 mg (12.5 mg/kg) of FUD or FUD equivalents of 10-40 kDa PEG-FUD that was spiked with 1.5% Cy5 labeled drug was delivered subcutaneously between the shoulder blades of the animals (n=3 per treatment group). The animals were imaged before the injection, immediately following injection, and at time points of 30 minutes and 1, 3, 6, 12, 24, 36, and 48 hours. The animals were sacrificed following the last time point and their organs were harvested for ex vivo fluorescence imaging and drug extraction and quantification. LivingImage® (PerkinElmer) software was used to analyze the views of each animal group. The autodraw feature of the software set to a 5% threshold was used to create unique regions of interest (ROI) on each animal at t=30 mins views that were consistently applied to each subsequent time point views to quantify drug levels present at the site of injection. Baseline autoflorescence values calculated from ROIs applied to “before injection” views were subtracted from the values of each time point's animals. The ROI values obtained from the t=30 mins views were used to calculate % dose remaining for each subsequent time point.

A short description of series [2]: Bleomycin model: PEG-FUD organ accumulation (Western blot, ex vivo fluorescence imaging). The settings on record: day 3-13 s.c. injection, bleomycin-injured vs uninjured (NS) lungs. As to the method: Separately, on day three post-bleomycin treatment, another animal set was treated with a single SC dose of PEG-FUD mixed with 25% Cy5-fluorophore labeled PEG-FUD or fully unlabeled PEG-FUD control (12.5 mg/kg). These mice were sacrificed seven days post-bleomycin treatment and their lungs, kidneys and livers imaged ex vivo using the fluorescence protocol on In Vivo Imaging System.
Western blot: Homogenized lung tissue was lysed for protein using 5% SDS/5 M Urea lysing buffer. The lysates were sonicated and boiled for 5 min prior to being subject to electrophoresis on polyacrylamide gels at 400 V for 2 hours and transferred at 100 V for 2.5 hours. Membranes were blotted with in-house made anti-FUD antibody produced in rabbit (0.7 μg/ml suspended in 2% bovine serum albumin) or β-actin housekeeping antibody produced in mouse (Sigma-Aldrich, 2 μg/ml suspended in 2% bovine serum albumin) and corresponding HRP-conjugated secondary antibody (1:3000). Blots were developed using an enhanced chemiluminescence (ECL) reaction (GE) and imaged on GE LAS4000 chemiluminescence imager to obtain images below the saturated threshold. […]
In Vivo Imaging System: Lungs, livers and kidneys of mice treated with bleomycin or NS and a single dose of SC Cy5-PEG-FUD or unlabeled PEG-FUD were imaged using the fluorescence protocol in the In Vivo Imaging System. […]

Series [3] deals with bleomycin-induced pulmonary fibrosis. As to the kind of experiment: Bleomycin-induced pulmonary fibrosis model: hydroxyproline and survival. The method, then:
All efforts were made to minimize suffering. The Bleomycin model is a rodent model representing a human equivalent of pulmonary fibrosis with the fibrotic response peaking between 14 and 21 days post-bleomycin installation. To initiate bleomycin injury, mice were anesthetized with ketamine (100 mg/kg) and xylazine (15 mg/kg) prior to delivering a single intratracheal dose of bleomycin (1 U/kg, Teva Pharmaceutical Industries, Ltd) reconstituted in 0.9% Normal Saline (NS) or NS alone as control.
End-points for analysis: On day 14, mice were euthanized and lungs homogenized for hydroxyproline and western blot. Additionally, mouse survival by day 14 was compared between bleomycin PEG-FUD- and bleomycin PEG-mFUD-treated groups using Log-Rank test.
Hydroxyproline assay: Hydroxyproline assay was performed by Dounce homogenizing right lungs in deionized water, hydrolyzing in 6 N HCl for three hours at 120° C., drying for 45 min at 65° C., incubating in citrate-acetate buffer and chloramine-T for 20 min at room temperature, followed by Ehrlich's reagent for 15 min at 65° C. Subsequently, the samples were cooled to room temperature and the absorbance measured at 550 nm. […] Hydroxyproline results were analyzed using Students t-test with Bonferroni post-hoc test, comparing bleomycin- and PEG-FUD-treated mice to those treated with bleomycin and PEG-mFUD.

Where no end group is shown, it is not given here.

As for “FUD: 49 amino acid FUD peptide, SEQ ID NO: 1, recombinantly expressed, His-tag removed; inhibitor of fibronectin fibrillogenesis (KDQSPLAGESGETEYITEVYGNQQNPVDIDKKLPNETGFSGNMVETEDT; human) [reference compound]”, in series [1] (s.c. 12.5 mg/kg FUD equivalents, 24 hours), the “% dose remaining at the site of injection after 24 hours” value is 0.3%. Also, the “apparent half-life at the site of injection” value in series [1] (s.c. 12.5 mg/kg, spiked with 1.5% Cy5 labeled drug, nude mice) was found to be 35 min.
As to “PEG-FUD: PEGylated FUD prepared as in Example 1, PEG size not stated; approximately 27 kDa by mass spectrometry, likely the 20 kDa conjugate (KDQSPLAGESGETEYITEVYGNQQNPVDIDKKLPNETGFSGNMVETEDT; not fully specified (N-terminus); also: PEG size not given here)”, in series [2], the “PEG-FUD accumulation in lungs (Western blot)” value was “striking increase in PEG-FUD accumulation in bleomycin-injured lungs”. Besides, the “survival to the end of the 14-day trial” value in series [3] (bleomycin-treated mice, s.c. 12.5 mg/kg/day day 3-13) was determined as 100%. Besides, the “collagen accumulation (hydroxyproline assay, right lung)” value in series [3] (day 14 post-bleomycin, s.c. 12.5 mg/kg/day day 3-13, vs PEG-mFUD) is given as “significant reduction of collagen accumulation”.

These data come from patent US10828372B2, “Compositions and methods for the inhibition of fibrosis” (WISCONSIN ALUMNI RESEARCH FOUNDATION, priority 2017, dated 2020).
